Laboratory results taken from publication PMC5292684, “High affinity anchoring of the decoration protein pb10 onto the bacteriophage T5 capsid” (Scientific Reports, 2017).
Residue numbers refer to the chain shown, from its start. Numbers in names are those of the source.

B1: pb10 N-terminal domain (NTD), residues 1 to 77 (domain or fragment)
chain: MIDYSGLRTIFGEKLPESHIFFATVAAHKYVPSYAFLRRELGLSSAHTNRKVWKKFVEAYGKAIPPAPPAPPLTLSK
B2: decoration protein pb10 of bacteriophage T5, full-length, fused to a C-terminal histidine tag (natural protein, UniProt Q6QGD6 1-164, looked up)
chain: MIDYSGLRTIFGEKLPESHIFFATVAAHKYVPSYAFLRRELGLSSAHTNRKVWKKFVEAYGKAIPPAPPAPPLTLSKDLTASMSVEEGAALTLSVTATGGTGPYTYAWTKDGSPIPDASGATYTKPTAAAEDAGSYKVTVTDSKQVSKDSTTCAVTVNPTVPGG
notes: decoration protein pb10 of bacteriophage T5, 164 amino acids, GenBank AAU05286; Monomer by SEC-MALLS (17 kDa); 18.3 kDa with the His tag; also called pb10-His; His-tagged pb10; source: pET28b expression vector, purified (expression and purification detailed in SI); not shown: His-Tag, C-terminal, kept
B3: pb10 F36A-R38E (natural protein)
chain: B2 chain with F36A, R38E
B4: pb10 F36A (natural protein)
chain: B2 chain with F36A
B5: pb10 F36A-R38A (natural protein)
chain: B2 chain with F36A, R38A
B6: pb10 Y34A-R38E (natural protein)
chain: B2 chain with Y34A, R38E
B7: pb10 R38A (natural protein)
chain: B2 chain with R38A
B8: pb10 R38E (natural protein)
chain: B2 chain with R38E
B9: major capsid protein pb8 of bacteriophage T5 (natural protein, UniProt Q6QGD8 160-458, looked up)
chain: AVNQSSSVEVSSESYETIFSQRIIRDLQKELVVGALFEELPMSSKILTMLVEPDAGKATWVAASTYGTDTTTGEEVKGALKEIHFSTYKLAAKSFITDETEEDAIFSLLPLLRKRLIEAHAVSIEEAFMTGDGSGKPKGLLTLASEDSAKVVTEAKADGSVLVTAKTISKLRRKLGRHGLKLSKLVLIVSMDAYYDLLEDEEWQDVAQVGNDSVKLQGQVGRIYGLPVVVSEYFPAKANSAEFAVIVYKDNFVMPRQRAVTVERERQAGKQRDAYYVTQRVNLQRYFANGVVSGTYAAS
notes: major capsid protein (head protein) pb8 of bacteriophage T5, after its N-terminal scaffolding domain is cleaved off by the protease pb11; as a hexamer of the expanded capsid; Hexamer within the capsid lattice; the deposited model 5TJT is a homology model flexibly fitted into the cryo-EM map; also called head protein

Key:
[1] = target: bacteriophage T5 empty expanded capsid (without pb10) (bacteriophage T5); assay: SPR; T200, 25 °C, PBS (137 mM NaCl) with 1 mg/mL BSA; expanded capsids captured on a CM5 chip through immobilised rabbit anti-capsid antibodies; pb10 variants 0.09 to 40 nM injected at 50 uL/min; koff set at 2 x 10^-4 s^-1 for all proteins; global fit to a Langmuir mass transport-limited model
[2] = target: bacteriophage T5 empty expanded capsid (without pb10) (bacteriophage T5); assay: SPR; as a3 but PBS containing 300 mM NaCl; koff set at 2 x 10^-4 s^-1; single experiment
Target sequence in this assay (Q6QGD5 11-403 limits assumed): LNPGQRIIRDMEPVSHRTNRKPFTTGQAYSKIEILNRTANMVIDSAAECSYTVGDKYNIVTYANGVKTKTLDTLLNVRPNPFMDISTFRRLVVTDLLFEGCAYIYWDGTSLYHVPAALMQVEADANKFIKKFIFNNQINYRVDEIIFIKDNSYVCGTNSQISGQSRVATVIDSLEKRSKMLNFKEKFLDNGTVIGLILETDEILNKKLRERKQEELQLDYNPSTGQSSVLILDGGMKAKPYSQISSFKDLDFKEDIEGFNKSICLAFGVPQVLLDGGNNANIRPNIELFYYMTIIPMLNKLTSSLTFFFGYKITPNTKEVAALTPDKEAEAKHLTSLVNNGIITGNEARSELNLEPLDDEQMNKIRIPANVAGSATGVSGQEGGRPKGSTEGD

[3] = target: bacteriophage T5 empty expanded capsid (without pb10) (bacteriophage T5); assay: SPR; as a3 but PBS containing 500 mM NaCl; koff set at 2 x 10^-4 s^-1; single experiment
Target sequence in this assay (Q6QGD5 11-403 limits assumed): as above

[4] = target: bacteriophage T5 empty expanded capsid (without pb10) (bacteriophage T5); assay: SPR; as a3 but PBS containing 750 mM NaCl; koff set at 2 x 10^-4 s^-1; single experiment
Target sequence in this assay (Q6QGD5 11-403 limits assumed): as above

[5] = target: B9; assay: cryo-EM structure; icosahedral reconstructions of empty expanded capsids with pb10 (9 Å) and without pb10 (8 Å); pb8 homology model fitted into the hexamer density; settings: both partners purified
[6] = target: the molecule itself; assay: as above

## B1
[1]
  Kd: 0.55 pM
  koff: 0.0002 s⁻¹
  kon: 3.62e+08 M⁻¹ s⁻¹

## B2
[2]
  Kd: 1.8 pM
  koff: 0.0002 s⁻¹
  kon: 1.11e+08 M⁻¹ s⁻¹
[3]
  Kd: 4.2 pM
  koff: 0.0002 s⁻¹
  kon: 4.76e+07 M⁻¹ s⁻¹
[4]
  Kd: 22.2 pM
  koff: 0.0002 s⁻¹
  kon: 9.01e+06 M⁻¹ s⁻¹
[5]
  binding result: binds
[1]
  Kd: 1.11 pM
  koff: 0.0002 s⁻¹
  kon: 1.8e+08 M⁻¹ s⁻¹
  maximum mass increase of the capsid on decoration: 8%
  signal decrease over 700 s of dissociation: 7%

## B3
[1]
  Kd: 10.3 pM
  koff: 0.0002 s⁻¹
  kon: 1.95e+07 M⁻¹ s⁻¹

## B4
[1]
  Kd: 0.23 pM
  koff: 0.0002 s⁻¹
  kon: 8.66e+08 M⁻¹ s⁻¹

## B5
[1]
  Kd: 3.27 pM
  koff: 0.0002 s⁻¹
  kon: 6.11e+07 M⁻¹ s⁻¹

## B6
[1]
  Kd: 480 pM
  koff: 0.0002 s⁻¹
  kon: 417000 M⁻¹ s⁻¹

## B7
[1]
  Kd: 1.67 pM
  koff: 0.0002 s⁻¹
  kon: 1.2e+08 M⁻¹ s⁻¹

## B8
[1]
  Kd: 2.36 pM
  koff: 0.0002 s⁻¹
  kon: 8.47e+07 M⁻¹ s⁻¹

## B9
[6]
  stoichiometry N: 6
